Test results as given in patent US20240200091A1, “USE OF PROTOPORPHYRINOGEN OXIDASE” (BEIJING DABEINONG BIOTECHNOLOGY CO., LTD., priority 2021, published 2024).

How the values were obtained:
Assay type in all cases: in vivo
Settings in all cases: for The grade of pesticide damage/plant: number of plants of grade 0 / The grade of pesticide damage/plant: number of plants of grade 1 / The grade of pesticide damage/plant: number of plants of grade 2 / The grade of pesticide damage/plant: number of plants of grade 3: 7 DAT, 16 maize plants per genotype
[1] = tested on: transgenic maize plants; test: saflufenacil tolerance of transgenic maize plants (spray, grade of pesticide damage)
[2] = tested on: transgenic maize plants; test: oxyfluorfen tolerance of transgenic maize plants (spray, grade of pesticide damage)
[3] = tested on: transgenic maize plants; test: flumioxazin tolerance of transgenic maize plants (spray, grade of pesticide damage)
[4] = saflufenacil 50 g ai/ha (2x field concentration)
[5] = saflufenacil 100 g ai/ha (4x field concentration)
[6] = oxyfluorfen 360 g ai/ha (2x field concentration)
[7] = oxyfluorfen 720 g ai/ha (4x field concentration)
[8] = flumioxazin 120 g ai/ha (2x field concentration)
[9] = flumioxazin 240 g ai/ha (4x field concentration)

B1: PPO-APB: nucleotide sequence encoding Arsenophonus protoporphyrinogen oxidase PPO-AP (SEQ ID NO:65), maize common codon usage bias (nucleic acid)
DNA: ATGTCCTACCTCTTGCTGTATTCGGGGAAAAATGGTCAAACCAAGAAGATCATCCTCAAAATAACTGAATATCTTCGTAAAGAAGGAAAGCAGTGCGACGTCAGAGATCTTAACATGGACAAGAATTTTAATTTAAGTGTGTACCAGAAGGTTCTTGTCGGAGCTTCAATTCGCTACGGCCACTTCAACCCCGCCGTGCTGAACTTCGCGCAGAATCATCAAAAAGAGCTGAACACAATTCAATCTGCCTTCTTTGGCGTCAACCTGATGGCGAGGAAGCAAGGGAAGGATACACCAGAAACCAATGTTTATGTTCGGAAGTTTTTGGCTAAAATTCCATGGCAGCCGACGATCACCAACGTATTTAGCGGTGCACTCAGATATCCTCAGTACAAGTGGCTGGATAGGATAATGATCCAGTTCATCATGAAGATTACTGGCGGCGAGACAAATAAGAACAAGGAGGTGGAGTACACGGACTGGGAGAAAGTGGAATACTTCGCCCGCGAGTTCAATGCACTAAAATGA
modifications: The nucleotide sequence of PPO-APB
[1]; maize, saflufenacil at four-fold field concentration (100 g ai/ha)
  tolerance to saflufenacil: basically no tolerance
[1]; maize, saflufenacil at two-fold field concentration (50 g ai/ha)
  share of the plants that exhibited no tolerance: about 56
[1]; [4]
  The grade of pesticide damage/plant: number of plants of grade 0: 0
  The grade of pesticide damage/plant: number of plants of grade 1: 0
  The grade of pesticide damage/plant: number of plants of grade 2: 7
  The grade of pesticide damage/plant: number of plants of grade 3: 9
[1]; [5]
  The grade of pesticide damage/plant: number of plants of grade 0: 0
  The grade of pesticide damage/plant: number of plants of grade 1: 0
  The grade of pesticide damage/plant: number of plants of grade 2: 1
  The grade of pesticide damage/plant: number of plants of grade 3: 15
[2]; maize, oxyfluorfen at four-fold field concentration (720 g ai/ha)
  tolerance to oxyfluorfen: no tolerance
[2]; maize, oxyfluorfen at two-fold field concentration (360 g ai/ha)
  share of the plants that exhibited no tolerance: about 50%
[2]; [6]
  The grade of pesticide damage/plant: number of plants of grade 0: 0
  The grade of pesticide damage/plant: number of plants of grade 1: 0
  The grade of pesticide damage/plant: number of plants of grade 2: 8
  The grade of pesticide damage/plant: number of plants of grade 3: 8
[2]; [7]
  The grade of pesticide damage/plant: number of plants of grade 0: 0
  The grade of pesticide damage/plant: number of plants of grade 1: 0
  The grade of pesticide damage/plant: number of plants of grade 2: 0
  The grade of pesticide damage/plant: number of plants of grade 3: 16
[3]; [8]
  The grade of pesticide damage/plant: number of plants of grade 0: 0
  The grade of pesticide damage/plant: number of plants of grade 1: 0
  The grade of pesticide damage/plant: number of plants of grade 2: 3
  The grade of pesticide damage/plant: number of plants of grade 3: 13
[3]; [9]
  The grade of pesticide damage/plant: number of plants of grade 0: 0
  The grade of pesticide damage/plant: number of plants of grade 1: 0
  The grade of pesticide damage/plant: number of plants of grade 2: 0
  The grade of pesticide damage/plant: number of plants of grade 3: 16
[3]; maize, flumioxazin at different concentrations (120 and 240 g ai/ha)
  tolerance to flumioxazin: basically no tolerance
